Results: publication PMC13282566, “Regulation of Citron kinase by CDK1 and Aurora B regulates midbody formation and stability” (Journal of Cell Science, 2026)

T1: GST::KIF14(901-1648) (UniProt Q15058 901-1648)
T1 construct: Cloned into pDEST15; source: E. coli, purified (glutathione sepharose 4B), kept on beads; not shown: GST, N-terminal, kept
T1 sequence (looked up): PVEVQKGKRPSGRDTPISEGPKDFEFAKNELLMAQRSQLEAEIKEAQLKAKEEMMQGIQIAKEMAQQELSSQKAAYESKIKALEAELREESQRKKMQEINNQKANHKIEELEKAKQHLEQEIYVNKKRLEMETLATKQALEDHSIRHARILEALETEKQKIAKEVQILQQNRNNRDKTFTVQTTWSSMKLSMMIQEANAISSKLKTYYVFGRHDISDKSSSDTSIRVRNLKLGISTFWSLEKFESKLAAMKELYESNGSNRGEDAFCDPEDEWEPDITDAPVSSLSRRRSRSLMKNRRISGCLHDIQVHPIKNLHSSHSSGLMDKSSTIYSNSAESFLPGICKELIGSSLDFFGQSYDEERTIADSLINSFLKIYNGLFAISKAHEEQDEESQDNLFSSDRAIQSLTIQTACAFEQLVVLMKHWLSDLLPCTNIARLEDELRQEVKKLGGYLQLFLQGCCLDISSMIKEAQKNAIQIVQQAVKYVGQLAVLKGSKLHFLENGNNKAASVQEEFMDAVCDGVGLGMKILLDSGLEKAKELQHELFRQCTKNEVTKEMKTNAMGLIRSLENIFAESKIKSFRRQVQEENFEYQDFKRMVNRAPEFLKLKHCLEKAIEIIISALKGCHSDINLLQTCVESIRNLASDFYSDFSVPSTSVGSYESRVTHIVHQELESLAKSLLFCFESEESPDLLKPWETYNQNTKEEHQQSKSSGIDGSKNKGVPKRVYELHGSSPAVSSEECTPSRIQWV


Columns and labels:
[1] = target: KIF14 901-1648 (UniProt Q15058); experiment: GST pull-down of MBP-tagged fragment, western blot; settings: reference: fragment incubated without CDK1/cyclin B; sites S440
[2] = target: T1, GST::KIF14(901-1648); experiment: pull-down; GST-tagged KIF14 or MKLP1 fragment on glutathione sepharose beads, purified MBP::CIT-K fragment in solution (with or without prior incubation with CDK1/cyclin B or AURKB); NET-N+ buffer (50 mM Tris-HCl pH 7.4, 150 mM NaCl, 5 mM EDTA, 0.2% NP-40), 60 min at 4°C; washes with 250 mM NaCl; western blot; settings: both partners purified

Molecule	binding against the reference [1]	binding result [2]
Citron kinase (CIT-K) 420-585 (from UniProt O14578-4) fragment incubated with CDK1/cyclin B	same	
MBP::CIT-K(420-585) (domain or fragment, human, UniProt O14578-4 420-585, looked up, contains S440; numbering of UniProt O14578-4; Cloned into pKM596; also called MBP::CC1 fragment containing S440; source: E. coli, purified (amylose resin, eluted with maltose)) SYSKALGILGRSESVVSGLDSPAKTSSMEKKLLIKSKELQDSQDKCHKMEQEMTRLHRRVSEVEAVLSQKEVELKASETQRSLLEQDLATYITECSSLKRSLEQARMEVSQEDDKALQLLHDIREQSRKLQEIKEQEYQAQVEEMRLMMNQLEEDLVSARRRSDLY		binds
MBP::CIT-K(420-585) phosphorylated by CDK1/cyclin B (pS440) (domain or fragment, human, UniProt O14578-4 420-585, looked up, phosphoserine at 440 (in vitro by CDK1/cyclin B, detected with the CIT-K pS440 antibody), numbering of UniProt O14578-4; source: E. coli, purified (amylose resin), then incubated with recombinant CDK1/cyclin B) SYSKALGILGRSESVVSGLDSPAKTSSMEKKLLIKSKELQDSQDKCHKMEQEMTRLHRRVSEVEAVLSQKEVELKASETQRSLLEQDLATYITECSSLKRSLEQARMEVSQEDDKALQLLHDIREQSRKLQEIKEQEYQAQVEEMRLMMNQLEEDLVSARRRSDLY		binds
